# In patent US20220202763A1 (FLORIDA INTERNATIONAL UNIVERSITY BOARD OF TRUSTEES, published 2022):
# Target: the molecule itself
# Experiment: crystal structure (chains A and B in the asymmetric unit) and size exclusion chromatography
protein,measurement,value
"PpArsN1 (ArsN1 arsinothricin N-acetyltransferase from Pseudomonas putida KT2440), one subunit (enzyme, Written as a single subunit; also called phoN1 gene product; not shown: C-terminal six histidine tag from vector pBAD-Myc/His-A; the vector-derived residues between protein and tag are not sta) MHSGIDIRVARPEDAEEIQIIYAPIVLNTAISFEEAVPSVEQMRERISTTLQTYPYLVAVREGRVVGYAYASQHRARAAYRWAVDVTVYVAEGQRRSGIARQLYDVLLPVLKRLGYRSAYAGIALPNEGSVGLHERLGFQHIGTFPQVGFKLDAWHDVGYWRFDFGDEGLHPEAPLGFLSQIPVPR",binding result,binds
